Consider 125 sequences from the supplement of paper PMC9112550, “Optimization of the antimicrobial peptide Bac7 by deep mutational scanning” (BMC Biology, 2022).
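Also: peptides expressed intracellularly from a pBAD plasmid library in pooled LB shake-flask culture, induced with 0.3% L-arabinose, DNA abundance read by NGS, three biological replicates, DESeq2 with apeglm shrinkage.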

For the data set, the system named is Escherichia coli TOP10. The experiment in a line: shrunken log2 fold change of peptide-encoding DNA abundance (4.5 h post-induction vs induction); higher = less antimicrobial activity (less host growth inhibition). The settings on record: time post-induction: 4.5 h; library: site-saturation at positions 5, 18, 19, 20.
Turning to RRIRNRPPRLPRPRPRPIANPRP, the “shrunken log2 fold change” value came to 0.000407.

For RRIRWRPPRLPRPRPRPTILPRP, the “shrunken log2 fold change” value was 0.0395. On to RRIRTRPPRLPRPRPRPPANPRP, for which the “shrunken log2 fold change” value was 0.0303. For RRIRPRPPRLPRPRPRPRRWPRP, the “shrunken log2 fold change” value worked out at 0.56. For the sequence RRIRFRPPRLPRPRPRPIDHPRP, the “shrunken log2 fold change” value was -0.0746. Turning to RRIRQRPPRLPRPRPRPLRYPRP, the “shrunken log2 fold change” value is -0.0738. Consider RRIRYRPPRLPRPRPRPNNYPRP, for which the “shrunken log2 fold change” value is -1.22. With RRIRRRPPRLPRPRPRPTAYPRP, the “shrunken log2 fold change” value was 0.676. For the sequence RRIRQRPPRLPRPRPRPRSQPRP, the “shrunken log2 fold change” value is 0.0421. For RRIRSRPPRLPRPRPRPMRLPRP, the “shrunken log2 fold change” value is 0.0162. As for RRIRKRPPRLPRPRPRPHFNPRP, the “shrunken log2 fold change” value is -0.0789. For RRIRSRPPRLPRPRPRPWKFPRP, the “shrunken log2 fold change” value was -0.176. In the case of RRIRNRPPRLPRPRPRPRWNPRP it was -0.297. For RRIRWRPPRLPRPRPRPCYNPRP, the “shrunken log2 fold change” value was -0.24. With RRIRDRPPRLPRPRPRPGTHPRP, the “shrunken log2 fold change” value came out at 0.129. The figure for RRIRDRPPRLPRPRPRPAYVPRP is -0.00133; for RRIRNRPPRLPRPRPRPSWNPRP it is -0.191; for RRIRHRPPRLPRPRPRPAMWPRP it is 0.00652. RRIRTRPPRLPRPRPRPCNMPRP: the “shrunken log2 fold change” value is -0.154. With RRIRWRPPRLPRPRPRPTNQPRP, the “shrunken log2 fold change” value amounted to 0.018. As to RRIRCRPPRLPRPRPRPSKRPRP, the “shrunken log2 fold change” value was -0.12. For the sequence RRIRCRPPRLPRPRPRPDQIPRP, the “shrunken log2 fold change” value is -0.212. In the case of RRIRRRPPRLPRPRPRPYQFPRP it was 0.0273; in that of RRIRWRPPRLPRPRPRPVGYPRP, 0.0334.

Consider RRIRSRPPRLPRPRPRPRRSPRP, for which the “shrunken log2 fold change” value was determined as 0.181. Consider RRIRRRPPRLPRPRPRPWFWPRP, for which the “shrunken log2 fold change” value stood at 1.76.

Turning to RRIRFRPPRLPRPRPRPGQGPRP, the “shrunken log2 fold change” value was 0.249. For the sequence RRIRFRPPRLPRPRPRPLYGPRP, the “shrunken log2 fold change” value is -0.303.

On to RRIRRRPPRLPRPRPRPEEQPRP, for which the “shrunken log2 fold change” value came out at 0.231. RRIRIRPPRLPRPRPRPYFDPRP: the “shrunken log2 fold change” value was -0.711. In the case of RRIRWRPPRLPRPRPRPHIQPRP it was -0.749; in that of RRIRPRPPRLPRPRPRPDEIPRP, -0.144.

RRIRWRPPRLPRPRPRPYLKPRP: the “shrunken log2 fold change” value was -0.911. For RRIRSRPPRLPRPRPRPDDIPRP, the “shrunken log2 fold change” value is -0.00173. Consider RRIRYRPPRLPRPRPRPKGQPRP, for which the “shrunken log2 fold change” value was 0.0405. As to RRIRFRPPRLPRPRPRPKQVPRP, the “shrunken log2 fold change” value is -0.176. RRIRVRPPRLPRPRPRPKNGPRP: the “shrunken log2 fold change” value is -0.129. RRIRYRPPRLPRPRPRPNYHPRP: the “shrunken log2 fold change” value is -1.04. In the case of RRIRVRPPRLPRPRPRPCQIPRP it was -0.34; in that of RRIRLRPPRLPRPRPRPYTQPRP, -0.845.

RRIRWRPPRLPRPRPRPHRTPRP: the “shrunken log2 fold change” value was -0.168. Take RRIRYRPPRLPRPRPRPDHKPRP: the “shrunken log2 fold change” value is -0.308. In the case of RRIRGRPPRLPRPRPRPGNSPRP it was 0.131; in that of RRIRQRPPRLPRPRPRPCNFPRP, 0.0393. With RRIRKRPPRLPRPRPRPNMCPRP, the “shrunken log2 fold change” value came to 0.0251. Regarding RRIRRRPPRLPRPRPRPIAVPRP, the “shrunken log2 fold change” value was -0.0851. RRIRRRPPRLPRPRPRPGICPRP: the “shrunken log2 fold change” value was determined as 0.0771. In the case of RRIRFRPPRLPRPRPRPHPMPRP it was -0.367; in that of RRIRPRPPRLPRPRPRPKVMPRP, 0.294. For RRIRHRPPRLPRPRPRPQMPPRP, the “shrunken log2 fold change” value was -0.232. For RRIRMRPPRLPRPRPRPYSVPRP, the “shrunken log2 fold change” value was determined as 0.0409.

As for RRIRPRPPRLPRPRPRPYMVPRP, the “shrunken log2 fold change” value was -1.09. The figure for RRIRGRPPRLPRPRPRPDWLPRP is 0.963. In the case of RRIRSRPPRLPRPRPRPEMEPRP, the “shrunken log2 fold change” value was 0.00902. RRIRDRPPRLPRPRPRPICYPRP: the “shrunken log2 fold change” value worked out at 0.204. As to RRIRPRPPRLPRPRPRPGAGPRP, the “shrunken log2 fold change” value amounted to 0.555. As to RRIRVRPPRLPRPRPRPYKWPRP, the “shrunken log2 fold change” value is -0.266. On to RRIRWRPPRLPRPRPRPMDAPRP, for which the “shrunken log2 fold change” value came out at 0.051. In the case of RRIRDRPPRLPRPRPRPPTYPRP, the “shrunken log2 fold change” value is -0.383.

Take RRIRRRPPRLPRPRPRPIYKPRP: the “shrunken log2 fold change” value was -0.394. Take RRIRNRPPRLPRPRPRPWIHPRP: the “shrunken log2 fold change” value stood at 0.0731. In the case of RRIRYRPPRLPRPRPRPPGAPRP, the “shrunken log2 fold change” value came to 0.397.

For RRIRFRPPRLPRPRPRPGEIPRP, the “shrunken log2 fold change” value was -0.183. Turning to RRIRDRPPRLPRPRPRPAVPPRP, the “shrunken log2 fold change” value is -0.00426.

Turning to RRIRVRPPRLPRPRPRPRTWPRP, the “shrunken log2 fold change” value stood at 0.0366. In the case of RRIRYRPPRLPRPRPRPTLDPRP, the “shrunken log2 fold change” value is -0.628. Take RRIRVRPPRLPRPRPRPPTRPRP: the “shrunken log2 fold change” value came to 0.508. In the case of RRIRNRPPRLPRPRPRPFHKPRP it was -0.107; in that of RRIRPRPPRLPRPRPRPDKTPRP, 0.015.

On to RRIRFRPPRLPRPRPRPYWRPRP, for which the “shrunken log2 fold change” value was -0.0769. Take RRIRLRPPRLPRPRPRPNADPRP: the “shrunken log2 fold change” value was found to be 0.126. Take RRIRFRPPRLPRPRPRPWVEPRP: the “shrunken log2 fold change” value is -0.0273.

On to RRIRGRPPRLPRPRPRPWMSPRP, for which the “shrunken log2 fold change” value was found to be 0.0647. Turning to RRIRPRPPRLPRPRPRPYAEPRP, the “shrunken log2 fold change” value is -0.377. For RRIRRRPPRLPRPRPRPLSMPRP, the “shrunken log2 fold change” value came to 0.263. With RRIRHRPPRLPRPRPRPFHQPRP, the “shrunken log2 fold change” value was -0.01. In the case of RRIRGRPPRLPRPRPRPANNPRP, the “shrunken log2 fold change” value came to 0.138. In the case of RRIRQRPPRLPRPRPRPGNIPRP, the “shrunken log2 fold change” value is -0.151. In the case of RRIRGRPPRLPRPRPRPWIGPRP it was 0.0233; in that of RRIRCRPPRLPRPRPRPLSDPRP, 0.0896. Regarding RRIRNRPPRLPRPRPRPQQGPRP, the “shrunken log2 fold change” value is -0.159. As to RRIRNRPPRLPRPRPRPWAQPRP, the “shrunken log2 fold change” value was -0.0776. The figure for RRIRARPPRLPRPRPRPRSTPRP is 0.295; for RRIRGRPPRLPRPRPRPMWWPRP it is 0.184; for RRIRLRPPRLPRPRPRPGTEPRP it is -0.0405.

Turning to RRIRPRPPRLPRPRPRPKMEPRP, the “shrunken log2 fold change” value was -0.0537. The figure for RRIRQRPPRLPRPRPRPQNDPRP is 0.119; for RRIRMRPPRLPRPRPRPEHQPRP it is 0.0185. As for RRIRCRPPRLPRPRPRPAWTPRP, the “shrunken log2 fold change” value was -0.154. Take RRIRVRPPRLPRPRPRPGREPRP: the “shrunken log2 fold change” value was -0.00937.

In the case of RRIRSRPPRLPRPRPRPRQEPRP, the “shrunken log2 fold change” value is -0.0798. With RRIRNRPPRLPRPRPRPFLYPRP, the “shrunken log2 fold change” value was -0.468. With RRIRSRPPRLPRPRPRPWYYPRP, the “shrunken log2 fold change” value is -0.518. Regarding RRIRKRPPRLPRPRPRPTRYPRP, the “shrunken log2 fold change” value amounted to 0.438. Turning to RRIRYRPPRLPRPRPRPEWMPRP, the “shrunken log2 fold change” value was -0.758. The figure for RRIRNRPPRLPRPRPRPGWQPRP is 0.116; for RRIRTRPPRLPRPRPRPSRNPRP it is -0.0832; for RRIRQRPPRLPRPRPRPFNTPRP it is -0.29. As to RRIRDRPPRLPRPRPRPSWCPRP, the “shrunken log2 fold change” value was -0.0805. With RRIRLRPPRLPRPRPRPEVIPRP, the “shrunken log2 fold change” value came out at 0.178. In the case of RRIRIRPPRLPRPRPRPMMQPRP it was -0.0907.

In the case of RRIRKRPPRLPRPRPRPFFAPRP, the “shrunken log2 fold change” value came out at 0.645.

As to RRIRTRPPRLPRPRPRPALCPRP, the “shrunken log2 fold change” value is -0.0776. Regarding RRIRQRPPRLPRPRPRPFSMPRP, the “shrunken log2 fold change” value is -0.0842. For RRIRARPPRLPRPRPRPHQFPRP, the “shrunken log2 fold change” value is -0.024. RRIRVRPPRLPRPRPRPMMRPRP: the “shrunken log2 fold change” value came to 0.837. In the case of RRIRQRPPRLPRPRPRPEQHPRP it was -0.0137; in that of RRIRSRPPRLPRPRPRPMFMPRP, -0.223; in that of RRIRARPPRLPRPRPRPPTTPRP, 0.775.

RRIRVRPPRLPRPRPRPSWDPRP: the “shrunken log2 fold change” value amounted to 0.192. Consider RRIRHRPPRLPRPRPRPLTCPRP, for which the “shrunken log2 fold change” value is -0.0216. As to RRIRLRPPRLPRPRPRPQQAPRP, the “shrunken log2 fold change” value is -0.0623. RRIRNRPPRLPRPRPRPPWCPRP: the “shrunken log2 fold change” value was 0.108. On to RRIRSRPPRLPRPRPRPQNQPRP, for which the “shrunken log2 fold change” value was -0.455. The figure for RRIRCRPPRLPRPRPRPHMFPRP is -0.348; for RRIRLRPPRLPRPRPRPNWCPRP it is 0.374. Take RRIRHRPPRLPRPRPRPALEPRP: the “shrunken log2 fold change” value was -0.069.

Turning to RRIRVRPPRLPRPRPRPYYKPRP, the “shrunken log2 fold change” value is -0.67. Consider RRIRGRPPRLPRPRPRPLDPPRP, for which the “shrunken log2 fold change” value is 0.9.

RRIRRRPPRLPRPRPRPTFMPRP: the “shrunken log2 fold change” value came to 0.284. As for RRIRERPPRLPRPRPRPRMYPRP, the “shrunken log2 fold change” value was -0.723. On to RRIRIRPPRLPRPRPRPYEKPRP, for which the “shrunken log2 fold change” value is -0.352. For the sequence RRIRERPPRLPRPRPRPDEQPRP, the “shrunken log2 fold change” value was -0.00815. As for RRIRYRPPRLPRPRPRPCAMPRP, the “shrunken log2 fold change” value came out at 0.0865. Turning to RRIRARPPRLPRPRPRPATWPRP, the “shrunken log2 fold change” value came out at 0.37.
